Measured values published in patent US20050226864A1.

Target: recombinant, GPI-linked human FcRn on the surface of NS0 cells (human) (UniProt P55899)
Experiment: competitive flow cytometry on NS0 cells with human FcRn, pH 6.0; competitor biotinylated TNF-RII/Fc-fusion protein

- fold better binding than the wild-type: 2 fold
Substance: TNF-RII/Fc-fusion protein double mutant T250Q/M428L (Fc fusion)
